Assay results from PMC48140 (BMC Cell Biology, 2001).

Target: the molecule itself
Experiment: SDS-PAGE with immunoblot

B1: MP20, lens fiber cell membrane protein (natural protein, ovine, UniProt A0ACI6P5E9 1-173, looked up)
chain: MYSFMGGGLFCAWVGTILLVVATATDHWMQYRLSGAFAHQGLWRYCLGTKCYLQTESIAYWNATRAFMILSSLCATSGIIMGIVAFAQQPTFTRLSRPFSAGIMFFASTFFVLLALAIYTGVTVSFLGRRFGDWRFSWSYILGWVALLMTFFAGIFYMCAYRMHECRRLSTPR
Question: B1 was tested. Which “stoichiometry N” value did it give?
Answer: 2
